According to FireProtDB (doi:10.1093/protein/10.5.575):

B1: Cytochrome b5, P00171 (parent)
chain: MAEESSKAVKYYTLEEIQKHNNSKSTWLILHYKVYDLTKFLEEHPGGEEVLREQAGGDATENFEDVGHSTDARELSKTFIIGELHPDDRSKITKPSESIITTIDSNPSWWTNWLIPAISALFVALIYHLYTSEN

Variants of: B1
Details: Bos taurus, pH 7, Absorbance, phosphate 0.1 M, reversible: yes, structure 1CYO, whole UniProt chain shown

Variant | ddG of mutation (higher = less stable) (30 °C, Urea) | denaturant midpoint (higher = more stable) (30 °C, Urea) | ddG of mutation (higher = less stable) (66.2 °C, Thermal) | unfolding enthalpy (van 't Hoff) (66.2 °C, Thermal) | Tm (Thermal) | change of melting temperature, mutant - wild type (higher = more stable) (Thermal) | unfolding enthalpy (van 't Hoff) (Thermal)
F40Y | -4.31 kJ/mol | 8.3 M | -3.31 kJ/mol | 361 kJ/mol | 69.6 °C | 3.4 °C | 361 kJ/mol
F40H |  |  | 11.8 kJ/mol |  | 54.9 °C | -11.3 °C | 396 kJ/mol
F40L | 7.82 kJ/mol | 4.9 M | 7.82 kJ/mol |  | 59.1 °C | -7.1 °C | 434 kJ/mol
